The test concerns the target T1, Myo5 SH3 (MYO5_YEAST), Q04439.
T1 chain: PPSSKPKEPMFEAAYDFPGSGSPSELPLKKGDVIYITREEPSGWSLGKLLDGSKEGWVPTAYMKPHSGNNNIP
Nature of the test: SPOT array.
KFLIHNEPIDPNDR [YIL009W 198-211]: the normalised SPOT signal, Boehringer light units (BLU); mean over the file's lines of this peptide amounted to 122.
Turning to IPTSHAPPLPPTAP [YLR337C 317-330], the normalised SPOT signal, Boehringer light units (BLU); mean over the file's lines of this peptide was 43600.
Next, KLALHQYPNFPSEG [YML022W 11-24]: 130; KFPLMDKPSIPTLR [YNR011C 604-617]: 432; KELNLTGPKVPEDI [YHR027C 344-357]: 102.
Take ILVPHLDPIDPWEA [YJR111C 130-143]: the normalised SPOT signal, Boehringer light units (BLU); mean over the file's lines of this peptide stood at 166.
Next, KELLLIPPGFPTKN [YCL010C 181-194]: 123.
Next, KEFRFIFPLQPLFI [YGL142C 392-405]: 750; KLKSLNLPQLPPPK [YDR266C 567-580]: 675; KFTDMLDPEKPNVI [YBR033W 385-398]: 262.
In the case of KFTDMQVPKGPVSP [YOR264W 96-109], the normalised SPOT signal, Boehringer light units (BLU); mean over the file's lines of this peptide is 197.
KPKMLPIPSKPTLF [YPL243W 531-544] yielded a normalised SPOT signal, Boehringer light units (BLU); mean over the file's lines of this peptide of 1360.
The result for KEVDLTRPSAPSEP [YLR181C 258-271] reads 132; that for KPPSYPSPVQPPQS [YBL085W 399-412], 16500.
Take KAPYLVQPNVPEKH [YHL002W 140-153]: the normalised SPOT signal, Boehringer light units (BLU); mean over the file's lines of this peptide turned out to be 131.
The result for KELPFTGPSIPFEN [YPL216W 339-352] reads 339; that for KAGSFGAPSSPTSG [YPL179W 199-212], 124; that for KPSLWEAPQNPPYS [YML035C 587-600], 152.
The result for KLPKLNVPLNPKGK [YAR009C 933-946] reads 305; that for KPPSYPSPAQPPKS [YER114C 444-457], 11900.
Next, KPAVLHYPPIPASA [YAL031C 680-693]: 183.
Regarding KPLNLSKPISPPPS [YJL157C 78-91], the normalised SPOT signal, Boehringer light units (BLU); mean over the file's lines of this peptide is 254.
Next, KPSVMKLPPSPKQP [YFR030W 871-884]: 380; KLPDLKLPPSPVPS [YML083C 113-126]: 231.
For the molecule KLPQLPPPPPPPPP [YIL159W 764-777], the normalised SPOT signal, Boehringer light units (BLU); mean over the file's lines of this peptide was determined as 54100.
Next, IPVGYVTPKFPSLY [YPR153W 14-27]: 21.6; KLAPLNSPSLPTTN [YOL107W 236-249]: 212.
Turning to KPLKFLRPTYPDLS [YHR027C 87-100], the normalised SPOT signal, Boehringer light units (BLU); mean over the file's lines of this peptide is 149.
With ILPVLNIPLPPQEK [YER132C 923-936], the normalised SPOT signal, Boehringer light units (BLU); mean over the file's lines of this peptide amounted to 21.6.
The result for KLNSLQIPHLPPSV [YHR105W 144-157] reads 350.
The result for KAIVWRLPKMPKIK [YFL040W 5-18] reads 515; that for IPLPHQPPPLPIYS [YMR182C 149-162], 53600.
The molecule KAVHLYFPILPHSG [YCR034W 255-268] displayed a normalised SPOT signal, Boehringer light units (BLU); mean over the file's lines of this peptide of 125.
Next, KLFVLLPPIDPKDG [YNL132W 563-576]: 258; KPSGYYGPNSPLKL [YKL108W 199-212]: 159; KPKVLFHPHWPLYI [YJL105W 401-414]: 196.
The result for ILVAYGLPVSPDEK [YDR127W 327-340] reads 167.
Take KFVIHNEPIDPSDK [YMR246W 198-211]: the normalised SPOT signal, Boehringer light units (BLU); mean over the file's lines of this peptide was found to be 46.7.
Next, KLVKFKLPFLPISD [YGR150C 548-561]: 974; KFFKHLYPAIPILD [YLR256W 487-500]: 217; KFRQMFKPLAPNTR [YLR072W 165-178]: 1220.
The result for ILQELSLPSRPVMP [YGR002C 427-440] reads 51.9; that for ILQILFEPMPPFNS [YBL037W 656-669], 200; that for KPPVYRLPPLPRLK [YDL045W-A 4-17], 2310.
Next, KLGRFTNPQQPRED [YPL075W 704-717]: 227; KESKFGTPEKPLSD [YBL052C 444-457]: 250.
KPMLHNVPHDPSLP [YDR231C 158-171] gave a normalised SPOT signal, Boehringer light units (BLU); mean over the file's lines of this peptide of 413.
The result for ILTLLKMPEVPNSV [YDR395W 823-836] reads 172.
The result for KASSMPAPPPPPPP [YLR337C 391-404] reads 10500; that for KLWDLSKPSKPLKE [YAR003W 97-110], 233.
Next, KLDPLGEPFDPNKH [YOR232W 171-184]: 276; KELIYKQPSGPGLV [YER045C 32-45]: 79.3; KEQNWKHPLLPLLK [YDL202W 121-134]: 321.
Molecule KLEDLNEPLSPWIS [YPL159C 152-165] had a normalised SPOT signal, Boehringer light units (BLU); mean over the file's lines of this peptide of 71.1.

Source of the values: PMC314469, “Protein Interaction Networks by Proteome Peptide Scanning” (PLoS Biology, 2004).
